This passage reports Ki and kcat/Km for the disappearance of full-length Dns-VIP (1-28), no addition results from patent US5633227.

Usually Ki stands for the equilibrium dissociation constant of an inhibitor or competing ligand from its target. A lower Ki goes with tighter binding.

In assay [1] the target is human mast cell tryptase purified from human lung (human) (UniProt Q15661). Description: VIP assay (loss of full-length Dns-VIP), Dixon plot, human lung tryptase.
Assay [2] shares this target. Description: VIP assay (formation of Dns-VIP-(1-14)), Dixon plot, human lung tryptase.
For assay [3] the target is unchanged. Description: GPK-AMC enzyme inhibition assay, Dixon plot, human lung tryptase.
Assay [4] deals with dansylated vasoactive intestinal peptide (Dns-VIP, 28 amino acids) (Homo sapiens (Human)) (UniProt P01282).

Sequence of N-terminal domain of SLPI (amino acids 1-49) (P03973 26-74 limits assumed): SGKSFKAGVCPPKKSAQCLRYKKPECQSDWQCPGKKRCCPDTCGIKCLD
Sequence of C-terminal domain of SLPI (amino acids 50-107) (P03973 75-132 limits assumed): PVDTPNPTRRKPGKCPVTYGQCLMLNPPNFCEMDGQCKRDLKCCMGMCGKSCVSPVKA
Sequence of recombinant secretory leukocyte protease inhibitor (SLPI) (P03973 26-132): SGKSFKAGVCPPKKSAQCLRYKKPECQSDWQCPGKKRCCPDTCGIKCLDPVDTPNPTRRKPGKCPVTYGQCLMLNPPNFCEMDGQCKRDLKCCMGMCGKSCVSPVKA

Substance “recombinant secretory leukocyte protease inhibitor (SLPI) (from UniProt P03973)” displayed a Ki in assay [1] of 8 nM.
“C-terminal domain of SLPI (amino acids 50-107) (from UniProt P03973)”: the Ki was determined as 1.6 nM in assay [2] and 4.8 nM in assay [3].
Turning to “human mast cell tryptase purified from human lung (from UniProt Q15661) (enzyme)”, the kcat/Km for the disappearance of full-length Dns-VIP (1-28), no addition in assay [4] is 1.8e+07 M⁻¹ s⁻¹.
On to “N-terminal domain of SLPI (amino acids 1-49) (from UniProt P03973)”, for which the Ki in assay [2] was found to be 130 nM; in assay [3], 290 nM.
